Measurements: patent US20020076736A1, “Methods of affecting laminin 5 processing” (priority 2000, published 2002)

Tests used:
[1] = biological target: unprocessed human laminin 5 (α3 chain of 200 kDa, β3 chain of 140 kDa, γ2 chain of 155 kDa) (UniProt Q16787)
[2] = biological target: unprocessed human laminin 5 (α3 chain of 200 kDa, β3 chain of 140 kDa, γ2 chain of 155 kDa), Q16787
unprocessed human laminin 5 (α3 chain of 200 kDa, β3 chain of 140 kDa, γ2 chain of 155 kDa), Q16787, sequence (Q16787 whole entry, looked up): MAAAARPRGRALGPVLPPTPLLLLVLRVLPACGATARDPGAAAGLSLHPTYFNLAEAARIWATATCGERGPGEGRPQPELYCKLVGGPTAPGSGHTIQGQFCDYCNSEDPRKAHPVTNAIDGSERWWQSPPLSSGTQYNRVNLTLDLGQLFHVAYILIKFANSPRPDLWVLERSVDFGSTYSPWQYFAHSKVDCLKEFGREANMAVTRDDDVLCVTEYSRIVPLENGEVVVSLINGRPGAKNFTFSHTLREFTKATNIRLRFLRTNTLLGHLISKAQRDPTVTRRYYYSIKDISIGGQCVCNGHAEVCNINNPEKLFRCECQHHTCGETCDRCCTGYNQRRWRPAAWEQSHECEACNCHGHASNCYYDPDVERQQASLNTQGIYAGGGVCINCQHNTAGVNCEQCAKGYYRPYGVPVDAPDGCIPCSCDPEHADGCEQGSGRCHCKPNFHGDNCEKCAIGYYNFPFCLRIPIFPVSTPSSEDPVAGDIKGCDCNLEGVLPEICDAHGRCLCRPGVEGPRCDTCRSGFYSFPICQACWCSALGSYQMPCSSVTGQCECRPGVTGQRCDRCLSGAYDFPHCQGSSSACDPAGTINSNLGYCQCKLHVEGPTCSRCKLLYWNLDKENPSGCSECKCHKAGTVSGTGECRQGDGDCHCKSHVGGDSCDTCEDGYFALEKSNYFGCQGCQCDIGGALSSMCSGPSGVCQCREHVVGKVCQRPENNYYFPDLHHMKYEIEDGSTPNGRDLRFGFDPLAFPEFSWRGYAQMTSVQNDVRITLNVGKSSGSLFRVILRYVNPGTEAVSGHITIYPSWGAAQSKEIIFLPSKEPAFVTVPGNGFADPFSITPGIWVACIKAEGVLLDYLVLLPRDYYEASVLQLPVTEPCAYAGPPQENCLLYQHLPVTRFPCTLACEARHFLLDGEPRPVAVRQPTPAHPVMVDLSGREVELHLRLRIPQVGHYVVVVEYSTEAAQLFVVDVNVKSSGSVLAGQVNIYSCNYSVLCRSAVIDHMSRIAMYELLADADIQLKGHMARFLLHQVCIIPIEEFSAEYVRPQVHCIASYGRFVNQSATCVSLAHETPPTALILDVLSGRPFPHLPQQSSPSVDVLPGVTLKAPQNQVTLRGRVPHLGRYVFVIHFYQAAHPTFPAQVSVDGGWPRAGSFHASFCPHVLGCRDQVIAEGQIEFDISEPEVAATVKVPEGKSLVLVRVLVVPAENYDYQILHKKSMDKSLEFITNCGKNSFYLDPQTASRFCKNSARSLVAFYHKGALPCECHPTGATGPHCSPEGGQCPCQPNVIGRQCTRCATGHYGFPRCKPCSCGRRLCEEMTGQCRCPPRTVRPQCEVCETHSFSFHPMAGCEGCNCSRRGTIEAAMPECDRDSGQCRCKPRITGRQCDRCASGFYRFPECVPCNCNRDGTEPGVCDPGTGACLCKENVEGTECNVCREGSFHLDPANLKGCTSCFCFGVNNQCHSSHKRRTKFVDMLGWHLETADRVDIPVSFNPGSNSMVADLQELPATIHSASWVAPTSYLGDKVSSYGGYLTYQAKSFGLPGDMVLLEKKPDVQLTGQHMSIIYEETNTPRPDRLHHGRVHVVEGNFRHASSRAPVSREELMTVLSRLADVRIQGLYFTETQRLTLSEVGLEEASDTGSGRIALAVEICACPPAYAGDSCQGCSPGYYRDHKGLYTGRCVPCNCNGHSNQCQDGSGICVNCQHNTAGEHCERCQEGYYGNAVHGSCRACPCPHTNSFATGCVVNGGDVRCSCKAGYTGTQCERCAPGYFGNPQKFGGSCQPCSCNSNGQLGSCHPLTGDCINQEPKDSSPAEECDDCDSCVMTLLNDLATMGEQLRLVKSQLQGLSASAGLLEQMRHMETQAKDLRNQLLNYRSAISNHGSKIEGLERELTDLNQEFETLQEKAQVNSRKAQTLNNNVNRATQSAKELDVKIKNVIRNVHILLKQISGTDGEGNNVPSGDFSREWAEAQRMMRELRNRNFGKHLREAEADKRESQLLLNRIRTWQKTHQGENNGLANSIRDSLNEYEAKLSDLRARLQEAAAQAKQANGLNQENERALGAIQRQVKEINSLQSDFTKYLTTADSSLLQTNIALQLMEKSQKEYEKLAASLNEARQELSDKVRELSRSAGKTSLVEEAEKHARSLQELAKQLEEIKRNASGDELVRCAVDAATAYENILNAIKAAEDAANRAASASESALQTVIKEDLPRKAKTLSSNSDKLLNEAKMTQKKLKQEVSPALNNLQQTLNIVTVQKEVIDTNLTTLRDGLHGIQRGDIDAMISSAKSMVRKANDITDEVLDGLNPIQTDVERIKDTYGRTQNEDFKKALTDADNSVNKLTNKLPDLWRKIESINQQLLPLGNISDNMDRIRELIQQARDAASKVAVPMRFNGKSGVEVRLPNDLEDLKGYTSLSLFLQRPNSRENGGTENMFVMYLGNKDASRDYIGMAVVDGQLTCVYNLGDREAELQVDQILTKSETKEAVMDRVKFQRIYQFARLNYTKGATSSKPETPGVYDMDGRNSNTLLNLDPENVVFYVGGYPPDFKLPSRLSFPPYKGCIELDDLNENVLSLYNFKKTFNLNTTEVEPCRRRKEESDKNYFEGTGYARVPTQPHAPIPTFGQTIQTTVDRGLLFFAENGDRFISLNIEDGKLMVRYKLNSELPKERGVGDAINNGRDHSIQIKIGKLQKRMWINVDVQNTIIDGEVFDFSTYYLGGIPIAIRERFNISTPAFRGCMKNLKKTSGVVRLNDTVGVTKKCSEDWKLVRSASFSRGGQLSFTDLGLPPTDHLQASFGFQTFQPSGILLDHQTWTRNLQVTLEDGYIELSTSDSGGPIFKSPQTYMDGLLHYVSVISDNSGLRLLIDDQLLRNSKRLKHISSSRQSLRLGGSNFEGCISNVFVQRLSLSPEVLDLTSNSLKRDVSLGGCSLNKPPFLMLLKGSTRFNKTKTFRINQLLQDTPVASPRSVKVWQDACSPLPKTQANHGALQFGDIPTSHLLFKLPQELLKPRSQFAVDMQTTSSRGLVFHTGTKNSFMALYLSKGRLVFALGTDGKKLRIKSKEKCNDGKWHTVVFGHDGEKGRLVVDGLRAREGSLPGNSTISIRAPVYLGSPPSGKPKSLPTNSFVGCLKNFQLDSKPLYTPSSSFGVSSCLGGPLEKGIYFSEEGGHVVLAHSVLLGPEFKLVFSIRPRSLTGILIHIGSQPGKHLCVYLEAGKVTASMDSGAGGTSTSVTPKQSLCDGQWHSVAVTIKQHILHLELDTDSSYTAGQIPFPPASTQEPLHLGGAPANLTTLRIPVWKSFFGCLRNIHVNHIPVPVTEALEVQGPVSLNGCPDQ

unprocessed human laminin 5 (α3 chain of 200 kDa, β3 chain of 140 kDa, γ2 chain of 155 kDa), sequence (Q16787 whole entry, looked up): as above

| Molecule | cleavage of the α3 chain of laminin 5 (matrix digestion, western blot) [1] | cleavage of the α3 chain of laminin 5 (matrix digestion, western blot) [2] | cleavage of the γ2 chain of laminin 5 (matrix digestion, western blot) [2] | processing of the laminin 5 α3 chain (about 1 µg laminin 5 with 30 ng/ml BMP-1, 16 hours at 37° C., western blot) [2] | cleavage activity toward the α3 chain and γ2 chain of laminin 5, compared with the other BMP-1 related proteins [2] |
| --- | --- | --- | --- | --- | --- |
| human mammalian tolloid (mTld) | BMP-1, mTld, mTll-1, and mTLL-2 all cleaved the α3 chain of laminin 5 |  |  |  |  |
| human mammalian tolloid-like-1 (mTll-1) (protein) AATSRTERIWPGGVIPYVIGGNFTGSQRAMFKQAMRHWEKHTCVTFIERSDEESYIVFTYRPCGCCSYVGRRGNGPQAISIGKNCDKFGIVVHELGHVIGFWHEHTRPDRDNHVTIIRENIQPGQEYNFLKMEPGEVNSLGERYDFDSIMHYARNTFSRGMFLDTILPSRDDNGIRPAIGQRTRLSKGDIAQARKLYRCPACGETLQESNGNLSSPGFPNGYPSYTHCIWRVSVTPGEKIVLNFTTMDLYKSSLCWYDYIEVRDGYWRKSPLLGRFCGDKLPEVLTSTDSRMWIEFRSSSNWVGKGFAAVYEAICGGEIRKNEGQIQSPNYPDDYRPMKECVWKITVSESYHVGLTFQSFEIERHDNCAYDYLEVRDGTSENSPLIGRFCGYDKPEDIRSTSNTLWMKFVSDGTVNKAGFAANFFKEEDECAKPDRGGCEQRCLNTLGSYQCACEPGYELGPDRRSCEAACGGLLTKLNGTITTPGWPKEYPPNKNCVWQVVAPTQYRISVKFEFFELEGNEVCKYDYVEIWSGLSSESKLHGKFCGAEVPEVITSQFNNMRIEFKSDNTVSKKGFKAHFFSDKDECSKDNGGCQHECVNTMGSYMCQCRNGFVLHDNKHDCKEAECEQKIHSPSGLITSPNWPDKYPSRKECTWEISATPGHRIKLAFSEFEIEQHQECAYDHLEVFDGETEKSPILGRLCGNKIPDPLVATGNKMFVRFVSDASVQRKGFQATHSTECGGRLKAESKPRDLYSHAQFGDNNYPGQVDCEWLLVSERGSRLELSFQTFEVEEEADCGYDYVELFDGLDSTAVGLGRFCGSGPPEEIYSIGDSVLIHFHTDDTINKKGFHIRYKSIRYPDTTHTKK |  | BMP-1, mTld, mTll-1, and mTLL-2 all cleaved the α3 chain of laminin 5 |  |  |  |
| human BMP-1 (bone morphogenetic protein-1) (protein) AATSRPERVWPDGVIPFVIGGNFTGSQRAVFRQAMRHWEKHTCVTFLERTDEDSYIVFTYRPCGCCSYVGRRGGGPQAISIGKNCDKFGIVVHELGHVVGFWHEHTRPDRDRHVSIVRENIQPGQEYNFLKMEPQEVESLGETYDFDSIMHYARNTFSRGIFLDTIVPKYEVNGVKPPIGQRTRLSKGDIAQARKLYKCPACGETLQDSTGNFSSPEYPNGYSAHMHCVWRISVTPGEKIILNFTSLDLYRSRLCWYDYVEVRDGFWRKAPLRGRFCGSKLPEPIVSTDSRLWVEFRSSSNWVGKGFFAVYEAICGGDVKKDYGHIQSPNYPDDYRPSKVCIWRIQVSEGFHVGLTFQSFEIERHDSCAYDYLEVRDGHSESSTLIGRYCGYEKPDDIKSTSSRLWLKFVSDGSINKAGFAVNFFKEVDECSRPNRGGCEQRCLNTLGSYKCSCDPGYELAPDKRRCEAACGGFLTKLNGSITSPGWPKEYPPNKNCIWQLVAPTQYRISLQFDFFETEGNDVCKYDFVEVRSGLTADSKLHGKFCGSEKPEVITSQYNNMRVEFKSDNTVSKKGFKAHFFSEKRPALQPPRGRPHQLKFRVQKRNRTPQ |  | BMP-1, mTld, mTll-1, and mTLL-2 all cleaved the α3 chain of laminin 5 | BMP-1 and mTLL-2 cleaved the γ2 chain of laminin 5 | laminin α3 chain was completely processed from 200 kDa to 165 kDa by BMP-1 |  |
| human mammalian tolloid-like-2 (mTll-2) (protein) ATTSRTERIWPGGVIPYVIGGNFTGSQRAIFKQAMRHWEKHTCVTFIERTDEESFIVFSYRTCGCCSYVGRRGGGPQAISIGKNCDKFGIVAHELGHVVGFWHEHTRPDRDQHVTIIRENIQPGQEYNFLKMEAGEVSSLGETYDFDSIMHYARNTFSRGVFLDTILPRQDDNGVRPTIGQRVRLSQGDIAQARKLYKCPACGETLQDTTGNFSAPGFPNGYPSYSHCVWRISVTPGEKIVLNFTSMDLFKSRLCWYDYVEVRDGYWRKAPLLGRFCGDKIPEPLVSTDSRLWVEFRSSSNILGKGFFAAYEATCGGDMNKDAGQIQSPNYPDDYRPSKECVWRITVSEGFHVGLTFQAFEIERHDSCAYDYLEVRDGPTEESALIGHFCGYEKPEDVKSSSNRLWMKFVSDGSINKAGFAANFFKEVDECSWPDHGGCEHRCVNTLGSYKCACDPGYELAADKKMCEVACGGFITKLNGTITSPGWPKEYPTNKNCVWQVVAPAQYRISLQFEVFELEGNDVCKYDFVEVRSGLSPDAKLHGRFCGSETPEVITSQSNNMRVEFKSDNTVSKRGFRAHFFSDKDECAKDNGGCQHECVNTFGSYLCRCRNGYWLHENGHDCKEAGCAHKISSVEGTLASPNWPDKYPSRRECTWNISSTAGHRVKLTFNEFEIEQHQECAYDHLEMYDGPDSLAPILGRFCGSKKPDPTVASGSSMFLRFYSDASVQRKGFQAVHSTECGGRLKAEVQTKELYSHAQFGDNNYPSEARCDWVIVAEDGYGVELTFRTFEVEEEADCGYDYMEAYDGYDSSAPRLGRFCGSGPLEEIYSAGDSLMIRFRTDDTINKKGFHARYTSTKFQDALHMKK |  | BMP-1, mTld, mTll-1, and mTLL-2 all cleaved the α3 chain of laminin 5 | BMP-1 and mTLL-2 cleaved the γ2 chain of laminin 5 |  | mTll-2 showed more potent cleavage activity toward the α3 chain and γ2 chain of laminin 5 compared to the other BMP-1 related proteins |
